US20230322924A1 (Janssen / Centocor, published 2023)

T1: chimpanzee PSMA, full length, on HEK293F cells (Pan troglodytes (chimpanzee))
T1 construct: stably transfected HEK293F cells; also called chimp PSMA; chimp-PSMA HEK
T1 chain: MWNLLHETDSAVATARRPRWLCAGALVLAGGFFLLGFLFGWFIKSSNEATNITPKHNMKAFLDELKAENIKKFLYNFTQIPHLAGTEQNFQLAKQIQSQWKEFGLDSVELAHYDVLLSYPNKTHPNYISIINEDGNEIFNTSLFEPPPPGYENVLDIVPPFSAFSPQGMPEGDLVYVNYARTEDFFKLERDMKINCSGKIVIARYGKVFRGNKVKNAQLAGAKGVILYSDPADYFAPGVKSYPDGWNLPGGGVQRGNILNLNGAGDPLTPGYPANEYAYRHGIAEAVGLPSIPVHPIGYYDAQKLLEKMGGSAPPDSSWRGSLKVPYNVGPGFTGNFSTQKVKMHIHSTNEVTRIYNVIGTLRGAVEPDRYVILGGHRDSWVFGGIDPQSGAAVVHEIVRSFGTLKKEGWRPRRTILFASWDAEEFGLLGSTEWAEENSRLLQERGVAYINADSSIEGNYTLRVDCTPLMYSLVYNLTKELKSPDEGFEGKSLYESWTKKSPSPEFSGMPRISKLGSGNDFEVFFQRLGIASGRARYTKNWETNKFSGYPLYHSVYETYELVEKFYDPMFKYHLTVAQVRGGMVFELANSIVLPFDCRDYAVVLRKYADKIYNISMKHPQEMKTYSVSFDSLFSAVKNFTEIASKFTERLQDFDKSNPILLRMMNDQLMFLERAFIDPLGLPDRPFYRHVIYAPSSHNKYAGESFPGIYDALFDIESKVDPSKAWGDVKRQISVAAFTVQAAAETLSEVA

T2: Cynomolgous monkey PSMA, full length, on HEK293F cells (Macaca fascicularis (cynomolgus monkey))
T2 construct: stably transfected HEK293F cells; also called cyno PSMA; Cyno-PSMA HEK
T2 chain: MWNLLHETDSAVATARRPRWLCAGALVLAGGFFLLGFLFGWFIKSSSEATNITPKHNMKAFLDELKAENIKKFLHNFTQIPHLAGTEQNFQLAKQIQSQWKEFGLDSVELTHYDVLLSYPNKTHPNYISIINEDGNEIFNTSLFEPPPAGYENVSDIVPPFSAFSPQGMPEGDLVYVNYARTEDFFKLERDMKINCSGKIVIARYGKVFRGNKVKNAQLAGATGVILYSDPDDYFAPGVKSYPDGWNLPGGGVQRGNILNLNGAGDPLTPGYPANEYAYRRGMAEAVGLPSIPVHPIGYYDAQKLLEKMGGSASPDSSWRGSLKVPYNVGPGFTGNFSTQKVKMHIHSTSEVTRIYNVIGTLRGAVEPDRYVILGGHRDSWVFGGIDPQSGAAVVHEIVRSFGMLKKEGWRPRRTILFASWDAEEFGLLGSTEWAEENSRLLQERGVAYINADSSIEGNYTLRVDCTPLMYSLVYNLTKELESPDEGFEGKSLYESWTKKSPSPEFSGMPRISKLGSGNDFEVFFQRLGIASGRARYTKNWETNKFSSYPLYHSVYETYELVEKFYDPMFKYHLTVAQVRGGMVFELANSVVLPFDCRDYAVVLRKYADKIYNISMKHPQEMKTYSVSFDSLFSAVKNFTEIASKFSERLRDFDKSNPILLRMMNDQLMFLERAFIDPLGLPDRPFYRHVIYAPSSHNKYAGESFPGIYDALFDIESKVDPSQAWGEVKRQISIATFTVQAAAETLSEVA

B1: PSMB51 (Fab, V domains shown)
VH: QVQLVQSGAEVKKPGSSVKVSCKASGGTFSSYAISWVRQAPGQGLEWMGWIIPYNGNANYAQKFQGRVTITADESTSTAYMELSSLRSEDTAVYYCARVNSAALVWERLDYWGQGTLVTVSS
VL: DIQMTQSPSSLSASVGDRVTITCRASQSIDRWLNWYQQKPGKAPKLLIYAASSLQSGVPSRFSGSGSGTDFTLTISSLQPEDFATYYCQQSPRYPLTFGQGTKVEIK
notes: mammalian-expressed Fab supernatant (huG1 Fab and human kappa vectors); also called PSMM52
B2: PSMB109 (Fab, V domains shown)
VH: QVQLVQSGAEVKKPGSSVKVSCKASGGTFSSYAISWVRQAPGQGLEWMGWISPYNGNANYAQKFQGRVTITADESTSTAYMELSSLRSEDTAVYYCARVNSAALVWERLDYWGQGTLVTVSS
VL: DIQMTQSPSSLSASVGDRVTITCRASQSIDRWLNWYQQKPGKAPKLLIYAASSLQSGVPSRFSGSGSGTDFTLTISSLQPEDFATYYCQQSPRYPLTFGQGTKVEIK
notes: mammalian-expressed Fab supernatant (huG1 Fab and human kappa vectors); also called PSMM110
B3: C3CB11 (bispecific antibody, IgG4, V domains shown)
VH 1: QVQLVESGGGVVQPGRSLRLSCVASGFTFSSYGMHWVRQAPGKGLEWVAVISYDGSNKYYADSVKGRFTISRDNSKNTLYLQMNSLRAEGTAVYYCAKDFRSFDWLPPDSASYHGMDVWGQGTTVTVSS
VL 1: SYELTQPPSVSVSPGQTASITCSGDKLGDKYACWYQQKPGQSPVLVIYQDGKRPSGIPERFSGSNFGNKATLTISGTQAMDEADYYCQAWDRNTVVFGGGTKLTVL
VH 2: EVQLVESGGGLVQPGGSLRLSCAASGFTFNTYAMNWVRQAPGKGLEWVARIRSKYNNYATYYAASVKGRFTISRDDSKNSLYLQMNSLKTEDTAVYYCARHGNFGNSYVSWFAYWGQGTLVTVSS
VL 2: QTVVTQEPSLTVSPGGTVTLTCRSSTGAVTTSNYANWVQQKPGQAPRGLIGGTNKRAPGTPARFSGSLLGGKAALTLSGVQPEDEAEYYCALWYSNLWVFGGGTKLTVL
B4: C3CB12 (bispecific antibody, IgG4, V domains shown)
VH 1: not shown
VL 1: SYELTQPPSVSVSPGQTASITCSGNKLGAKFASWYQQKPGQSPVLVIYQDNKRPSGIPERFSGSNSGNTATLTISGTQAVDEADYYCQAWDSSTVVFGGGTKLTVL
VH 2: EVQLVESGGGLVQPGGSLRLSCAASGFTFNTYAMNWVRQAPGKGLEWVARIRSKYNNYATYYAASVKGRFTISRDDSKNSLYLQMNSLKTEDTAVYYCARHGNFGNSYVSWFAYWGQGTLVTVSS
VL 2: QTVVTQEPSLTVSPGGTVTLTCRSSTGAVTTSNYANWVQQKPGQAPRGLIGGTNKRAPGTPARFSGSLLGGKAALTLSGVQPEDEAEYYCALWYSNLWVFGGGTKLTVL
B5: C3CB7 (bispecific antibody, IgG4, V domains shown)
VH 1: QVQLVQSGSELRKPGASVKVSCKASGYTFTNYAMNWVRQAPGQGLEWMGWINTNTGNPTYAQGFTGRFVFSLDTSVSSAYLQISSLKAEDTAMYYCATDRDRGTDYWGQGTLVTVSS
VL 1: QSALTQPASVSGSPGQSITISCTGTSSDVGDYNYVSWYQQHPGKVPKLMIYDVSNRPSGVSNRFSGSMSGNTASLTISGLQAEDEADYYCSSYSSSSALEVFGGGTKLTVL
VH 2: EVQLVESGGGLVQPGGSLRLSCAASGFTFNTYAMNWVRQAPGKGLEWVARIRSKYNNYATYYAASVKGRFTISRDDSKNSLYLQMNSLKTEDTAVYYCARHGNFGNSYVSWFAYWGQGTLVTVSS
VL 2: QTVVTQEPSLTVSPGGTVTLTCRSSTGAVTTSNYANWVQQKPGQAPRGLIGGTNKRAPGTPARFSGSLLGGKAALTLSGVQPEDEAEYYCALWYSNLWVFGGGTKLTVL
B6: PSMB56 (Fab, V domains shown)
VH: QVQLVQSGAEVKKPGSSVKVSCKASGGTFSSYAISWVRQAPGQGLEWMGWISPYNGNANYAQKFQGRVTITADESTSTAYMELSSLRSEDTAVYYCARDSDRSYNLDYWGQGTLVTVSS
VL: not shown
notes: mammalian-expressed Fab supernatant (huG1 Fab and human kappa vectors); also called PSMM57
B7: PSMB84 (Fab, V domains shown)
VH: EVQLLESGGGLVQPGGSLRLSCAASGFTFDSDWMSWVRQAPGKGLEWVSAISGNGGSTEYADSVKGRFTISRDNSKNTLYLQMNSLRAEDTAVYYCARDPYYYYDGDSYYGMDVWGQGTLVTVSS
VL: not shown
notes: mammalian-expressed Fab supernatant (huG1 Fab and human kappa vectors); also called PSMM85
B8: PSMB55 (Fab, V domains shown)
VH: EVQLVQSGAEVKKPGESLKISCKGSGYSFTSYWIGWVRQMPGKGLEWMGIIYPGDSDTRYSPSFQGQVTISADKSISTAYLQWSSLKASDTAMYYCARGLPIWYLDYWGQGTLVTVSS
VL: EIVLTQSPATLSLSPGERATLSCRASQSVASDLAWYQQKPGQAPRLLIYFASNRATGIPARFSGSGSGTDFTLTISSLEPEDFAVYYCQQSITWPFTFGQGTKVEIK
notes: mammalian-expressed Fab supernatant (huG1 Fab and human kappa vectors); also called PSMM56
B9: PSMB58 (Fab, V domains shown)
VH: EVQLVQSGAEVKKPGESLKISCKGSGYSFTSYWISWVRQMPGKGLEWMGIIYPGDSYTRYSPSFQGQVTISADKSISTAYLQWSSLKASDTAMYYCARDYEWELFDSRLDYWGQGTLVTVSS
VL: not shown
notes: mammalian-expressed Fab supernatant (huG1 Fab and human kappa vectors); also called PSMM59
B10: PSMB86 (Fab, V domains shown)
VH: QVQLVQSGAEVKKPGSSVKVSCKASGGTFKSYDISWVRQAPGQGLEWMGGIIPIEGTANYAQKFQGRVTITADESTSTAYMELSSLRSEDTAVYYCARDYPAGYGFDYWGQGTLVTVSS
VL: not shown
notes: mammalian-expressed Fab supernatant (huG1 Fab and human kappa vectors); also called PSMM87
B11: PSMB80 (Fab, V domains shown)
VH: QVQLVQSGAEVKKPGSSVKVSCKASGGTFDDYAISWVRQAPGQGLEWMGRIDPIEGTANYAQKFQGRVTITADESTSTAYMELSSLRSEDTAVYYCARDRYYYDGVYWYSDYFDYWGQGTLVTVS
VL: not shown
notes: mammalian-expressed Fab supernatant (huG1 Fab and human kappa vectors); also called PSMM81

Tests used:
[1] = biological target: T1, chimpanzee PSMA, full length, on …; assay: flow cytometry, Fab supernatant, chimp PSMA HEK cells
Protocol: (§1) Individual Fab clones were isolated from the round 3 output of all panning experiments following pIX excision. Fab clones were tested for binding to chimp and cyno PSMA expressing HEK cells, as well as to human PSMA on LNCaP cells. Briefly, PSMA expressing cells were aliquoted into a V-bottom plate (CoStar 3357) at a density of 200,000 per well and incubated with (100 μl) supernatants expressing Fab fragments for 1 hour on ice. Cells were washed twice with PBS containing 2% FBS, and stained with a mouse anti-human kappa-RPE antibody (Life Technologies cat #MH10514) for 1 hour on ice. Cells were washed twice with PBS containing 2% FBS and resuspended in […] of the same wash buffer. Plates were read on a BD FACS Array flow cytometer. FACS data was analyzed in FlowJo software by live gating the healthy population of cells using forward scatter and side scatter, and then analyzing the cells within this gate for PE staining. Mean fluorescence intensity (MFI) was calculated and exported into Microsoft Excel. […] Fabs were sequenced and moved forward for cloning into mammalian expression vector for rescreening. True positives were selected from the binding of mammalian cell expressed Fab supernatants to PSMA-expressing cell lines.
(§2) Confirmation of mammalian expressed Fab supernatants was performed using the whole cell binding assay described previously. Binding of Fabs to human PSMA (LNCaP), chimpanzee, and cynomolgous monkey cells was tested, as well as counter screening for no binding to the parental HEK cell line.

[2] = biological target: T3, human PSMA on LNCaP cells (human, UniProt Q04609 1-750); assay: flow cytometry, Fab supernatant, LNCaP cells
T3 construct: PSMA of the LNCaP prostate cancer cell line itself
Protocol: as §1, with “A cell-based binding assay was designed to assess the binding capabilities of individual Fab-his fusions from E. coli supernatants to PSMA-expressing cells. Individual” for “Individual”
as §2

[3] = biological target: T2, Cynomolgous monkey PSMA, full length, …; assay: flow cytometry, Fab supernatant, cyno PSMA HEK cells
Protocol: as §1, §2

[4] = biological target: Human CD33 full length (human, UniProt P20138 18-364); assay: cell-based or functional assay
Sequence of Human CD33 full length (P20138 18-364 limits assumed): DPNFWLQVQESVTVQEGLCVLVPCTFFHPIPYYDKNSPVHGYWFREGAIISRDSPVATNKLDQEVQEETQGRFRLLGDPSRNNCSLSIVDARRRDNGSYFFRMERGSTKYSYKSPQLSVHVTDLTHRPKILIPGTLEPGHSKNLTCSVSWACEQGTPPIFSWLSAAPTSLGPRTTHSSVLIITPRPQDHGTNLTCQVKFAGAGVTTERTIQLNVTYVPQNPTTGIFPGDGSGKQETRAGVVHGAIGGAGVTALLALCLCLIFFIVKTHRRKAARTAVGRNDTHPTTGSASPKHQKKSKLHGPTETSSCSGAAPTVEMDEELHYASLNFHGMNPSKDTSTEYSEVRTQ

T3 sequence (Q04609 whole entry): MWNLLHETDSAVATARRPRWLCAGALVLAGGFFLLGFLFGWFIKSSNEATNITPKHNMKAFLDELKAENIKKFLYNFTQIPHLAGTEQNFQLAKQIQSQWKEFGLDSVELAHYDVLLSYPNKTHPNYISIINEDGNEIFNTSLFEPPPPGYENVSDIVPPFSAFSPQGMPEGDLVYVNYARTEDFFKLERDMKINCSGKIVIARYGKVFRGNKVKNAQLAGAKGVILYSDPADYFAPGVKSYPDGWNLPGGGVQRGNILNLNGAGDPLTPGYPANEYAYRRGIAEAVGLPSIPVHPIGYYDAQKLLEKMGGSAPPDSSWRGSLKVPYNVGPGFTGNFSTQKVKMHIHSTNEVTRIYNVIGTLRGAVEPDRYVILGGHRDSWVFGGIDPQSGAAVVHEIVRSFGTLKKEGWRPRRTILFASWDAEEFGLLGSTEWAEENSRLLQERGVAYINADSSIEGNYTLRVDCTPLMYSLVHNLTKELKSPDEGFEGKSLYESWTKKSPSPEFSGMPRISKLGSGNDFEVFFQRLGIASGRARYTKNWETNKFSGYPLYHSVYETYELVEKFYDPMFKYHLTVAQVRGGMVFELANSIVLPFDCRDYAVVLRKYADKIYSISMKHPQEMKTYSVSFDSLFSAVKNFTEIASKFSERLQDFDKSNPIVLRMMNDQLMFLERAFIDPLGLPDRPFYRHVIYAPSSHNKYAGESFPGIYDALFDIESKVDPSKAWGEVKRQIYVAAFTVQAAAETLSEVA

Row | Binder | Geo-MFI [1] | Geo-MFI [2] | Geo-MFI [3] | Primary AML Cell Killing EC50 [4] [nM]
1 | B1 | 231 | 41.5 | 285 | –
2 | B2 | 326 | 34.9 | 321 | –
3 | B3 | – | – | – | 3.96
4 | B4 | – | – | – | 2.63
5 | B5 | – | – | – | 0.332
6 | B6 | 34.7 | 24.5 | 95.6 | –
7 | B7 | 729 | 192 | 750 | –
8 | B8 | 180 | 17.2 | 226 | –
9 | B9 | 192 | 25.3 | 121 | –
10 | B10 | 176 | 31.7 | 224 | –
11 | B11 | 18.6 | 20.9 | 19.6 | –
